Reference: patent publication US20210269533A1 (SAMSUNG ELECTRONICS, published 2021)
Substitutions are numbered along the chain they refer to. Each block holds one binder with its values, some of them ahead of it.

Columns and labels:
[1] = biological target: c-Met on cancer cells (MKN45 gastric cancer cells; NCI-H441 lung cancer cells) (human, UniProt P08581 25-1390); assay: cell-based or functional assay
human c-Met protein [2] = biological target: T1, human c-Met protein (human, UniProt P08581 25-932, limits assumed); assay: SPR (Biacore), antibody immobilized on CM5 chip, human c-Met protein injected at 0.39-100 nM
T1 construct: also called c-Met antigen
Experimental: (§1) Affinities of the 4 types of antibodies against c-Met antigen prepared in Example 7 were measured by using a Biacore (GE healthcare). About 80 to 110 RU of each antibody was immobilized on a CM5 chip, 9 different concentrations ranging from 0.39 nM to 100 nM of human c-Met protein, as an antigen, were injected at a rate of 30 ul/min to obtain kₒₙ values and koff values as shown in Table 3. Then, KD values were calculated based thereon.

human c-Met protein [3] = biological target: T1, human c-Met protein; assay: SPR (Biacore), ratio of KD values of Table 3
Experimental: as §1

c-Met on cancer cells (MKN45 gastric cancer cells; NCI-H441 lung cancer cells), sequence (P08581 25-1390): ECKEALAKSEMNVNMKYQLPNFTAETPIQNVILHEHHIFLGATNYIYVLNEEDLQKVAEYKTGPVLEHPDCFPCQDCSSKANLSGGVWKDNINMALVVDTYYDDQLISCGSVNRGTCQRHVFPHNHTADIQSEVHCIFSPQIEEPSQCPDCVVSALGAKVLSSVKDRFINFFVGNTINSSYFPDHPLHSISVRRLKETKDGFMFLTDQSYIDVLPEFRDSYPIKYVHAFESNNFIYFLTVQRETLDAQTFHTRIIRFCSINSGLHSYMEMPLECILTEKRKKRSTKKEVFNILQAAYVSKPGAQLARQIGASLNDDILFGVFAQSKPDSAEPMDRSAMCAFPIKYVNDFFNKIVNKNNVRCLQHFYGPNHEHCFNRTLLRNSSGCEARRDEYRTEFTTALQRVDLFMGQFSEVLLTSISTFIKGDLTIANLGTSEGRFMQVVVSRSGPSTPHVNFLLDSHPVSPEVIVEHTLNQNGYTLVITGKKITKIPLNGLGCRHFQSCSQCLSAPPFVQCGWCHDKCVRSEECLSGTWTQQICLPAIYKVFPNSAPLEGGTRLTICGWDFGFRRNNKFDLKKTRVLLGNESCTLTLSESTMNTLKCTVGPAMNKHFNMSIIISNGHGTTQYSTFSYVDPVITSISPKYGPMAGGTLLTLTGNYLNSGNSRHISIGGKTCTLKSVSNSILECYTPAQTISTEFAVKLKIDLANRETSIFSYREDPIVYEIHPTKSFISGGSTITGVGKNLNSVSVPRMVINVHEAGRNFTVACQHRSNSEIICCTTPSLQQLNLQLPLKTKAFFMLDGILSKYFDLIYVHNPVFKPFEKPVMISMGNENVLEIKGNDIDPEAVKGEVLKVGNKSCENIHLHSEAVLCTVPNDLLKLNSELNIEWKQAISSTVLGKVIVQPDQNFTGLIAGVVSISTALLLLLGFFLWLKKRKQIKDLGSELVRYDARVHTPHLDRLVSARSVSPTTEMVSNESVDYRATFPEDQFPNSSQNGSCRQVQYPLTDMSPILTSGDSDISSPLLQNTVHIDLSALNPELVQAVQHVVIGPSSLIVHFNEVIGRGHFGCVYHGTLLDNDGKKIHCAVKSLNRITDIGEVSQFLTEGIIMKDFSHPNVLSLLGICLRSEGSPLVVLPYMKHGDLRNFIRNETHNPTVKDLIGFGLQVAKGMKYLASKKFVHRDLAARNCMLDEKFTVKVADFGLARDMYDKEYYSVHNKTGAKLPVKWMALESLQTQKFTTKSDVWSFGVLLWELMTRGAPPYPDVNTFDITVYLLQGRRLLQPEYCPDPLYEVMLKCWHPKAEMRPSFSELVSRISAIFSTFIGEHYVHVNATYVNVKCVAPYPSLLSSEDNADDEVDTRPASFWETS
T1 sequence (P08581 25-932 limits assumed): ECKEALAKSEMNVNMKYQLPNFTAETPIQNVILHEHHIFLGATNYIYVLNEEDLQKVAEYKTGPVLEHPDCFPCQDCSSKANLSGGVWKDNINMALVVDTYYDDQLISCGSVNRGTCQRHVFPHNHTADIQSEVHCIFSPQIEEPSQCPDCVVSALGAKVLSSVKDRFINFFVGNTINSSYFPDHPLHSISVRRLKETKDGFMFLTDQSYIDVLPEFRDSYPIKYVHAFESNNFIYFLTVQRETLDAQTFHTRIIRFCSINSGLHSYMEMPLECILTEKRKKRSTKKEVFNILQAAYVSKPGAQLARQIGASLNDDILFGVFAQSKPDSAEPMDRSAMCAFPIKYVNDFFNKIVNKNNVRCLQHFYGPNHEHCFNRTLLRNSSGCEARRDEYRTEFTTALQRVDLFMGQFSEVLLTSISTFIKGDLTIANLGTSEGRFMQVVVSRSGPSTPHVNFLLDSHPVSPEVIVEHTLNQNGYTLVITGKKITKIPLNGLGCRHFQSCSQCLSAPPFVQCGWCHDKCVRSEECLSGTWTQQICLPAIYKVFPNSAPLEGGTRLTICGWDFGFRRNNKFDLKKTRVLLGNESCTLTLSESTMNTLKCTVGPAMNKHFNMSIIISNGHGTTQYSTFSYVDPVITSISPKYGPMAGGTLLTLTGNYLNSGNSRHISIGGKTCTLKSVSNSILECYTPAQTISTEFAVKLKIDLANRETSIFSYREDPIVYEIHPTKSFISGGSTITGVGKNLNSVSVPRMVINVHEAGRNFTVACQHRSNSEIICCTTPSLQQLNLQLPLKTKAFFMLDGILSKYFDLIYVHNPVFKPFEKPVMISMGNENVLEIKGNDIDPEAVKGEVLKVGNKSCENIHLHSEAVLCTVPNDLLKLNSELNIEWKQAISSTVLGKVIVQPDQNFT

degree of degradation of c-Met (total c-Met ELISA, MKN45 cells, 5 ug/ml, 24 h), increase compared to huAbF46 [1]: ~28% | Kd (human c-Met protein [2]): 0.42 nM | koff (human c-Met protein [2]): 0.00024 s⁻¹ | kon (human c-Met protein [2]): 572000 M⁻¹ s⁻¹
B1: huAbF46-H4-A5 (antibody, IgG1, V domains shown)
VH: EVQLVESGGGLVQPGGSLRLSCAASGFTFTDYYMSWVRQAPGKGLEWLGFIRNKANGYTTEYSASVKGRFTISRDNSKNTLYLQMNSLRAEDTAVYYCARDNWFAYWGQGTLVTVSS
VL: DIQMTQSPSSLSASVGDRVTITCKSSQSLLASGNQNNYLAWHQQKPGKAPKMLIIWASTRVSGVPSRFSGSGSGTDFTLTISSLQPEDFATYYCQQSYSRPFTFGQGTKVEIKR
notes: IgG1 constant region with U6-HC7 hinge, human kappa light chain; also called IgG from clone L3-5
BrdU assay on NCI-H441 cells (agonism); safety improved by, at 10 ug/ml [1]: 21%

degree of degradation of c-Met (total c-Met ELISA, MKN45 cells, 5 ug/ml, 24 h), increase compared to huAbF46 [1]: ~37% | fold improvement of affinity (against huAbF46) (human c-Met protein [3]): 37 times
B2: huAbF46-H4-A1 (antibody, V domains shown)
VH: B1 VH
VL: B1 VL with F102Y
notes: also called IgG from clone L3-1
BrdU assay on NCI-H441 cells (agonism); safety improved by, at 10 ug/ml [1]: 25%

degree of degradation of c-Met (total c-Met ELISA, MKN45 cells, 5 ug/ml, 24 h), increase compared to huAbF46 [1]: ~28% | Kd (human c-Met protein [2]): 0.5 nM | koff (human c-Met protein [2]): 0.000253 s⁻¹ | kon (human c-Met protein [2]): 502000 M⁻¹ s⁻¹ | fold improvement of affinity (against huAbF46) (human c-Met protein [3]): 5 times
B3: huAbF46-H4-A2 (antibody, IgG1, V domains shown)
VH: B1 VH
VL: B1 VL with Q95G, F102L
notes: IgG1 constant region with U6-HC7 hinge, human kappa light chain; also called IgG from clone L3-2
BrdU assay on NCI-H441 cells (agonism); safety improved by, at 10 ug/ml [1]: 28%

degree of degradation of c-Met (total c-Met ELISA, MKN45 cells, 5 ug/ml, 24 h), increase compared to huAbF46 [1]: ~28% | Kd (human c-Met protein [2]): 0.34 nM | koff (human c-Met protein [2]): 0.000143 s⁻¹ | kon (human c-Met protein [2]): 419000 M⁻¹ s⁻¹
B4: huAbF46-H4-A3 (antibody, IgG1, V domains shown)
VH: B1 VH
VL: B1 VL with Q95A, R100H, T103S
notes: IgG1 constant region with U6-HC7 hinge, human kappa light chain; also called IgG from clone L3-3
BrdU assay on NCI-H441 cells (agonism); safety improved by, at 10 ug/ml [1]: 13%
